{"source": "paper PMC4893161", "about": "“The Dynamic Localization of Cytoplasmic Dynein in Neurons Is Driven by Kinesin-1” (Neuron, 2016)", "format_in_all_cases": "binding", "key": {"[1]": {"tested_on": "KIF5A, KIF5B, KIF5C", "assay": "Co-immunoprecipitation of DIC1a with myc-tagged KIF5 isoforms in COS cells", "conditions": "IP anti-myc, Figure 4A"}, "[2]": {"tested_on": "KLC2", "assay": "Co-immunoprecipitation of KLC2 versus KLC1 with mCherry-DIC1a in COS cells", "conditions": "COS cell lysates, IP anti-mCherry, band intensity relative to KLC1, n = 4 experiments"}, "[3]": {"tested_on": "KIF5C stalk (561–774)", "assay": "Co-immunoprecipitation of DIC1a with KIF5C head, stalk and tail constructs in COS cells", "conditions": "IP anti-GFP, Figures 4B and 4C"}}}
{"molecule": "DIC1a: neuron-specific dynein intermediate chain isoform, expressed in COS cells (protein, left off: mCherry, end not stated, kept, neuron-specific dynein intermediate chain isoform, expressed in COS cells) MSDKSDLKAELERKKQRLAQIREEKKRKEEERKKKEADMQQKKEPVPDDSDLDRKRRETEALLQSIGISPEPPLVQPLHFLTWDTCYFHYLVPTPMSPSSKSVSTPSEAGSQDDLGPLTRTLQWDTDPSVLQLQSDSELGRRLNKLGVSKVTQVDFLPREVVSYSKETQTPLATHQSEEDEEDEEMVEPKVGHDSELENQDKKQETKEAPPRELTEEEKQQILHSEEFLIFFDRTIRVIERALAEDSDIFFDYSGRELEEKDGDVQAGANLSFNRQFYDEHWSKHRVVTCMDWSLQYPELMVASYSNNEDAPHEPDGVALVWNMKFKKTTPEYVFHCQSSVMSVCFARFHPNLVVGGTYSGQIVLWDNRSHRRTPVQRTPLSAAAHTHPVYCVNVVGTQNAHNLITVSTDGKMCSWSLDMLSTPQESMELVYNKSKPVAVTGMAFPTGDVNNFVVGSEEGTVYTACRHGSKAGIGEVFEGHQGPVTGINCHMAVGPIDFSHLFVTSSFDWTVKLWTTKHNKPLYSFEDNADYVYDVMWSPVHPALFACVDGMGRLDLWNLNSDTEVPTASVAIEGAYALNRVRWAQGGKEVAVGDSEGRIWIYDVGELAVPHNDEWTRFARTLVEIRANRADSEEEGAVELAA", "values": [{"measurement": "co-precipitation with all three KIF5 isoforms", "setting": "[1]", "result": "co-precipitated"}, {"measurement": "KLC2 relative to KLC1 co-immunoprecipitated with DIC1a", "setting": "[2]", "result": 5, "unit": "fold"}, {"measurement": "co-precipitation with stalk region of KIF5C", "setting": "[3]", "result": "co-precipitated"}]}
